From patent US9840693B2, “Polypeptide hydrogels and uses related thereto” (Emory University, priority 2014, dated 2017) come the findings set out here.

The nature of series [1]: Self-assembly of peptides into hydrogel at physiologic pH and osmolarity. It counts as physicochemical. To be noted: for Self-Assembly: peptide alone at 1 % w/v; for self-assembly into a hydrogel when mixed with peptide hydrogel R: mixed with R at a 1:10 ratio; for self-assemble at physiologic pH and osmolarity: peptide alone. The text has this:
JAG-1 (CDDYYYGFGCNKFCRPR)(SEQ ID NO: 1) can be incorporated into the self-assembling peptides to generate bioactive scaffolds with the potential to regulate Notch signaling in a ligand density dependent manner. The self-assembling sequence RADA (or R) (RARADADARARADADA)(SEQ ID NO: 2) with a 7 glycine linker following the terminal alanine is followed by the active sequence of the Notch ligand Jagged-1 (JAG-1) to create the fusion peptide (RJ). As a control, the JAG-1 portion may be replaced with the scrambled sequence (RCGPDCFDNYGRYKYCF)(SEQ ID NO:4) (RS) with no known cell surface binding site can be used as a control to check for the specificity of JAG 1 in activating Notch-1 signaling. […] These peptide scaffolds self-assemble at physiological pH and osmolarity (in 295 mM sucrose solution) into nanofiber hydrogels. After synthesis, the peptides can be purified by high pressure liquid chromatography on reverse-phase columns. Purity can be assessed by HPLC and the presence of a correct composition by amino acid analysis.
The self-assembling peptide (R) and the peptides with Jag-1 (RJ) or scrambled (RS) attached are weighed out to create hydrogels of 1-3% w/v, i.e., hydrogels with varying % concentration from 1 to 3% w/v peptide wherein R is combined with RJ or RS in a ratio of 1:10.
A sucrose solution (295 mM) is added to the peptides and sonicated. The RJ or RS peptide solutions are mixed with the R solution at 1:10 and allowed to form the hydrogel. The time required to form the hydrogel depends on the concentration of the gel. In certain embodiments, the disclosure relates to the synthesis of self assembling peptides which contain the active ligand JAG-1 attached to it. This enables easy dose manipulation of JAG-1 to achieve Notch-1 activation.

Series [2] can be described thus: Atomic force microscopy measurement of Young's modulus of hydrogels. It is filed as physicochemical. To be noted: in comparison with unmodified hydrogels at both 1 and 2% w/v. The method, then: (§1) Peptides have been created containing a ligand for Notch-1 activation that self assembles into a hydrogel. For determination of swelling ratio, the hydrogels were created in a […] total volume and allowed to swell in 295 mM sucrose solution. After 24 h, the wet weight of the gels was measured. The gels were then lyophilized and the dry weight noted. Swelling ratio was calculated as the (wet weight−dry weight)/wet weight. […] The average Young's modulus for 1% and 2% hydrogels was 500 Pa and 1800 Pa respectively (FIG. 1A).
Cardiac progenitor cells (CPCs) were isolated from 2 month old male Sprague Dawley rats by digesting the heart with Collagenase followed by magnetic sorting for cKit positive cells. The CPCs were cultured on Ham's F12 supplemented with FBS, LIF, bFGF, L-Glutamine and antibiotics. Single cell cloning was performed by limiting dilution to obtain CPCs with >90% expression of cKit and the cardiac transcription factors nkx2-5 and gata-4. […] The Young's modulus of the hydrogels was determined using an MFP-3DBIO atomic force microscope (Asylum Research; Santa Barbara, Calif.), with a 4.74 μm diameter bead tippedsilicon nitride cantilever.

The nature of series [3]: Swelling ratio of hydrogels. It counts as physicochemical. To be noted: n=3. The method, then:
as §1

Series [4] deals with Notch1. Description: Notch1 activation in CHO cells with Notch1-responsive YFP expression, 2D culture with peptide in media. The settings on record: media containing peptide at 40 μm, 48 h. It counts as cell-based. The protocol:
(§2) CHO cells with Notch1-responsive YFP expression were cultured in media containing 20 or 40 μm R, RS or RJ for 48 h. […] These cells were also cultured in 3D in 1-3% w/v hydrogels composed of R, RS or RJ for 48 h.

Series [5] concerns Notch1. Kind of series: Notch1 activation in CHO cells with Notch1-responsive YFP expression, 3D culture in hydrogels. It counts as cell-based. The settings on record: 48 h. The protocol:
as §2

The subject of series [6] is Cardiac progenitor cells (CPCs). Kind of series: qPCR gene expression of CPCs cultured in hydrogels. It counts as cell-based, rat. The settings on record: 48 h. The method, then: Cardiac progenitor cells (CPCs) were isolated from 2 month old male Sprague Dawley rats by digesting the heart with Collagenase followed by magnetic sorting for cKit positive cells. The CPCs were cultured on Ham's F12 supplemented with FBS, LIF, bFGF, L-Glutamine and antibiotics. Single cell cloning was performed by limiting dilution to obtain CPCs with >90% expression of cKit and the cardiac transcription factors nkx2-5 and gata-4. CPCs were cultured in self assembling hydrogels of various concentrations (1-3% w/v) with either empty, scrambled or JAG-1 peptide in 1:10 ratio for 48 hrs in Millicell Insets. qRT-PCRs were performed using Power SYBR green on the StepOne Plus Applied Biosystems machine. The Young's modulus of the hydrogels was determined using an MFP-3DBIO atomic force microscope (Asylum Research; Santa Barbara, Calif.), with a 4.74 μm diameter bead tippedsilicon nitride cantilever.
CPCs were clonally expanded and characterized to be >96% Notch1+, >90% c-Kit+, nkx2-5+(nk2 homeobox 5) and gata4+(GATA binding protein 4). CPCs were cultured in 1 or 2% (w/v) SAP hydrogels (1R, 1RS, 1RJ or 2R, 2RS, 2RJ) for 48 h.
In general terms: In qPCR the cycle at which signal appears reflects the starting amount.

Series [7] relates to embryoid bodies (EBs) from mouse embryonic stem cells. Kind of series: qPCR gene expression of mouse embryoid bodies cultured in 1% hydrogels. It is filed as cell-based. The settings on record: mouse EBs in 1% hydrogels. The method, then:
To determine if gene expression changes in response to hydrogel-mediated Notch1 activation were conserved between stem/progenitor cells, day 2 embryoid bodies (EBs) from mouse embryonic stem cells were cultured in low concentration (1%) hydrogels for 48 h.

“Also recorded” adds a separate entry of the source.

On to “H2N-RARADADARARADADA-OH (H-RARADADARARADADA-OH) [unmodified/empty control]”, for which the Self-Assembly result in series [1] is given as “yes”.
In the case of “RARADADARARADADA(G7)(JAG-1) (RARADADARARADADAGGGGGGGCDDYYYGFGCNKFCRPR) [RJ]”, the Self-Assembly entry in series [1] is reported as “no”. Moreover, in series [2], the “effect of addition of peptide to the SAP on Young's modulus” value is given as “did not alter the Young's modulus”. The “effect of peptide addition on network structure (swelling ratio)” value in series [3] is listed as “no significant effect”. Moreover, the “Notch1 activation (YFP expression)” value in the series with Notch1 [4] is on record as “significant increase”; with Notch1 [5] (2% w/v hydrogel), “maximum Notch1 activation; also recorded: highest levels of Notch1 activation”; in the series on Notch1 [5] (further increase to 3% w/v hydrogel), “did not promote Notch1 activation”. Further, the “Notch1 signaling in CPCs” value in series [6] (1% hydrogels) and in series [6] (2% hydrogels) was “activates Notch1 signaling” throughout. For the same substance, the “endothelial and smooth muscle gene expression” value in series [6] (CPCs in 1% hydrogels) and in series [7] was “promotes” in each case. Besides, the “expression of Hey1 (Notch1 downstream target)” value in series [6] (CPCs in 1 or 2% hydrogels, qPCR) was “increased expression”. Also, the cardiac gene expression entry in series [6] (CPCs in 2% hydrogels) is reported as “promotes”.
Consider CDDYYYGFGCNKFCRPR [JAG-1], for which, in series [1], the “self-assembly into a hydrogel when mixed with peptide hydrogel R” value was “self-assembles into a hydrogel”; the “self-assemble at physiologic pH and osmolarity” value is given as “do not self-assemble”.
On to “RARADADARARADADA(G7)(SCR-1) (RARADADARARADADAGGGGGGGRCGPDCFDNYGRYKYCF) [RS, reference compound]”, for which the Self-Assembly result in series [1] is given as “no”. For the same substance, the “effect of addition of peptide to the SAP on Young's modulus” value in series [2] is on record as “did not alter the Young's modulus”. Further, the “effect of peptide addition on network structure (swelling ratio)” value in series [3] is given as “no significant effect”.
Consider RCGPDCFDNYGRYKYCF [SCR-1], for which, in series [1], the “self-assembly into a hydrogel when mixed with peptide hydrogel R” value is “self-assembles into a hydrogel”; the “self-assemble at physiologic pH and osmolarity” value is “do not self-assemble”.
